Assay results published in patent US20160272683A1 (Novo Nordisk, published 2016).
Numbered stars: 1 amine (or outer) side, 2 acyl side, 3 side chain; on linkers, the order of the positions; unused ones are H or OH. Side chains are listed from the residue outwards. Ends that are not written are not given here. * marks the point of attachment. C20 diacid = O=C(O)CCCCCCCCCCCCCCCCCCC(=O)*; C18 diacid = O=C(O)CCCCCCCCCCCCCCCCC(=O)*; γGlu = O=C(O)[C@H](CCC(=O)[*:2])N[*:1]

B1: [N-terminal(C20 diacid-gGlu), des1, 4G, 15Q, 21Q, 23Y, 30S, 31Q, 32T, 33Y]mimylin (peptide)
peptide: {C20 diacid-γGlu}-ASGLSTAALGRLSQELHELQTYPRTETGSQTY-NH2
SMILES: CC(C)C[C@H](NC(=O)CNC(=O)[C@H](CO)NC(=O)[C@H](C)NC(=O)CC[C@H](NC(=O)CCCCCCCCCCCCCCCCCCC(=O)O)C(=O)O)C(=O)N[C@@H](CO)C(=O)N[C@H](C(=O)N[C@@H](C)C(=O)N[C@@H](C)C(=O)N[C@@H](CC(C)C)C(=O)NCC(=O)N[C@@H](CCCNC(=N)N)C(=O)N[C@@H](CC(C)C)C(=O)N[C@@H](CO)C(=O)N[C@@H](CCC(N)=O)C(=O)N[C@@H](CCC(=O)O)C(=O)N[C@@H](CC(C)C)C(=O)N[C@@H](Cc1c[nH]cn1)C(=O)N[C@@H](CCC(=O)O)C(=O)N[C@@H](CC(C)C)C(=O)N[C@@H](CCC(N)=O)C(=O)N[C@H](C(=O)N[C@@H](Cc1ccc(O)cc1)C(=O)N1CCC[C@H]1C(=O)N[C@@H](CCCNC(=N)N)C(=O)N[C@H](C(=O)N[C@@H](CCC(=O)O)C(=O)N[C@H](C(=O)NCC(=O)N[C@@H](CO)C(=O)N[C@@H](CCC(N)=O)C(=O)N[C@H](C(=O)N[C@@H](Cc1ccc(O)cc1)C(N)=O)[C@@H](C)O)[C@@H](C)O)[C@@H](C)O)[C@@H](C)O)[C@@H](C)O
B2: [N-terminal(C20 diacid-gGlu), des1, 4G, 15Q, 21E, 23Y, 30S, 31G, 32T, 33Y]mimylin (peptide)
peptide: {C20 diacid-γGlu}-ASGLSTAALGRLSQELHELETYPRTETGSGTY-NH2
SMILES: CC(C)C[C@H](NC(=O)CNC(=O)[C@H](CO)NC(=O)[C@H](C)NC(=O)CC[C@H](NC(=O)CCCCCCCCCCCCCCCCCCC(=O)O)C(=O)O)C(=O)N[C@@H](CO)C(=O)N[C@H](C(=O)N[C@@H](C)C(=O)N[C@@H](C)C(=O)N[C@@H](CC(C)C)C(=O)NCC(=O)N[C@@H](CCCNC(=N)N)C(=O)N[C@@H](CC(C)C)C(=O)N[C@@H](CO)C(=O)N[C@@H](CCC(N)=O)C(=O)N[C@@H](CCC(=O)O)C(=O)N[C@@H](CC(C)C)C(=O)N[C@@H](Cc1c[nH]cn1)C(=O)N[C@@H](CCC(=O)O)C(=O)N[C@@H](CC(C)C)C(=O)N[C@@H](CCC(=O)O)C(=O)N[C@H](C(=O)N[C@@H](Cc1ccc(O)cc1)C(=O)N1CCC[C@H]1C(=O)N[C@@H](CCCNC(=N)N)C(=O)N[C@H](C(=O)N[C@@H](CCC(=O)O)C(=O)N[C@H](C(=O)NCC(=O)N[C@@H](CO)C(=O)NCC(=O)N[C@H](C(=O)N[C@@H](Cc1ccc(O)cc1)C(N)=O)[C@@H](C)O)[C@@H](C)O)[C@@H](C)O)[C@@H](C)O)[C@@H](C)O
B3: [N-terminal(C18 diacid-gGlu), des1, 6T, 9V, 14E, 21T, 30T, 31G, 32T]mimylin (peptide)
peptide: {C18 diacid-γGlu}-ASELTTAVLGRLEAELHELTTLPRTETGTGTP-NH2
B4: [N-terminal(C18 diacid-gGlu), des1, 6T, 9V, 14T, 21E, 30T, 31G, 32T]mimylin (peptide)
peptide: {C18 diacid-γGlu}-ASELTTAVLGRLTAELHELETLPRTETGTGTP-NH2
SMILES: CC(C)C[C@H](NC(=O)[C@H](CCC(=O)O)NC(=O)[C@H](C)NC(=O)[C@@H](NC(=O)[C@H](CC(C)C)NC(=O)[C@H](CCCNC(=N)N)NC(=O)CNC(=O)[C@H](CC(C)C)NC(=O)[C@@H](NC(=O)[C@H](C)NC(=O)[C@@H](NC(=O)[C@@H](NC(=O)[C@H](CC(C)C)NC(=O)[C@H](CCC(=O)O)NC(=O)[C@H](CO)NC(=O)[C@H](C)NC(=O)CC[C@H](NC(=O)CCCCCCCCCCCCCCCCC(=O)O)C(=O)O)[C@@H](C)O)[C@@H](C)O)C(C)C)[C@@H](C)O)C(=O)N[C@@H](Cc1c[nH]cn1)C(=O)N[C@@H](CCC(=O)O)C(=O)N[C@@H](CC(C)C)C(=O)N[C@@H](CCC(=O)O)C(=O)N[C@H](C(=O)N[C@@H](CC(C)C)C(=O)N1CCC[C@H]1C(=O)N[C@@H](CCCNC(=N)N)C(=O)N[C@H](C(=O)N[C@@H](CCC(=O)O)C(=O)N[C@H](C(=O)NCC(=O)N[C@H](C(=O)NCC(=O)N[C@H](C(=O)N1CCC[C@H]1C(N)=O)[C@@H](C)O)[C@@H](C)O)[C@@H](C)O)[C@@H](C)O)[C@@H](C)O
B5: [N-terminal(C18 diacid-gGlu), des1, 4G, 15Q, 21Q, 23Y, 30S, 31G, 32T, 33Y]mimylin (peptide)
peptide: {C18 diacid-γGlu}-ASGLSTAALGRLSQELHELQTYPRTETGSGTY-NH2
SMILES: CC(C)C[C@H](NC(=O)CNC(=O)[C@H](CO)NC(=O)[C@H](C)NC(=O)CC[C@H](NC(=O)CCCCCCCCCCCCCCCCC(=O)O)C(=O)O)C(=O)N[C@@H](CO)C(=O)N[C@H](C(=O)N[C@@H](C)C(=O)N[C@@H](C)C(=O)N[C@@H](CC(C)C)C(=O)NCC(=O)N[C@@H](CCCNC(=N)N)C(=O)N[C@@H](CC(C)C)C(=O)N[C@@H](CO)C(=O)N[C@@H](CCC(N)=O)C(=O)N[C@@H](CCC(=O)O)C(=O)N[C@@H](CC(C)C)C(=O)N[C@@H](Cc1c[nH]cn1)C(=O)N[C@@H](CCC(=O)O)C(=O)N[C@@H](CC(C)C)C(=O)N[C@@H](CCC(N)=O)C(=O)N[C@H](C(=O)N[C@@H](Cc1ccc(O)cc1)C(=O)N1CCC[C@H]1C(=O)N[C@@H](CCCNC(=N)N)C(=O)N[C@H](C(=O)N[C@@H](CCC(=O)O)C(=O)N[C@H](C(=O)NCC(=O)N[C@@H](CO)C(=O)NCC(=O)N[C@H](C(=O)N[C@@H](Cc1ccc(O)cc1)C(N)=O)[C@@H](C)O)[C@@H](C)O)[C@@H](C)O)[C@@H](C)O)[C@@H](C)O
B6: [N-terminal(C20 diacid), des1, 4G, 15Q, 21Q, 23Y, 30S, 31G, 32T, 33Y]mimylin (peptide)
peptide: {C20 diacid}-ASGLSTAALGRLSQELHELQTYPRTETGSGTY-NH2
SMILES: CC(C)C[C@H](NC(=O)CNC(=O)[C@H](CO)NC(=O)[C@H](C)NC(=O)CCCCCCCCCCCCCCCCCCC(=O)O)C(=O)N[C@@H](CO)C(=O)N[C@H](C(=O)N[C@@H](C)C(=O)N[C@@H](C)C(=O)N[C@@H](CC(C)C)C(=O)NCC(=O)N[C@@H](CCCNC(=N)N)C(=O)N[C@@H](CC(C)C)C(=O)N[C@@H](CO)C(=O)N[C@@H](CCC(N)=O)C(=O)N[C@@H](CCC(=O)O)C(=O)N[C@@H](CC(C)C)C(=O)N[C@@H](Cc1c[nH]cn1)C(=O)N[C@@H](CCC(=O)O)C(=O)N[C@@H](CC(C)C)C(=O)N[C@@H](CCC(N)=O)C(=O)N[C@H](C(=O)N[C@@H](Cc1ccc(O)cc1)C(=O)N1CCC[C@H]1C(=O)N[C@@H](CCCNC(=N)N)C(=O)N[C@H](C(=O)N[C@@H](CCC(=O)O)C(=O)N[C@H](C(=O)NCC(=O)N[C@@H](CO)C(=O)NCC(=O)N[C@H](C(=O)N[C@@H](Cc1ccc(O)cc1)C(N)=O)[C@@H](C)O)[C@@H](C)O)[C@@H](C)O)[C@@H](C)O)[C@@H](C)O
B7: [N-terminal(C20 diacid-gGlu), des1, 4G, 15T, 21E, 23Y, 30S, 31G, 32T, 33Y]mimylin (peptide)
peptide: {C20 diacid-γGlu}-ASGLSTAALGRLSTELHELETYPRTETGSGTY-NH2
SMILES: CC(C)C[C@H](NC(=O)CNC(=O)[C@H](CO)NC(=O)[C@H](C)NC(=O)CC[C@H](NC(=O)CCCCCCCCCCCCCCCCCCC(=O)O)C(=O)O)C(=O)N[C@@H](CO)C(=O)N[C@H](C(=O)N[C@@H](C)C(=O)N[C@@H](C)C(=O)N[C@@H](CC(C)C)C(=O)NCC(=O)N[C@@H](CCCNC(=N)N)C(=O)N[C@@H](CC(C)C)C(=O)N[C@@H](CO)C(=O)N[C@H](C(=O)N[C@@H](CCC(=O)O)C(=O)N[C@@H](CC(C)C)C(=O)N[C@@H](Cc1c[nH]cn1)C(=O)N[C@@H](CCC(=O)O)C(=O)N[C@@H](CC(C)C)C(=O)N[C@@H](CCC(=O)O)C(=O)N[C@H](C(=O)N[C@@H](Cc1ccc(O)cc1)C(=O)N1CCC[C@H]1C(=O)N[C@@H](CCCNC(=N)N)C(=O)N[C@H](C(=O)N[C@@H](CCC(=O)O)C(=O)N[C@H](C(=O)NCC(=O)N[C@@H](CO)C(=O)NCC(=O)N[C@H](C(=O)N[C@@H](Cc1ccc(O)cc1)C(N)=O)[C@@H](C)O)[C@@H](C)O)[C@@H](C)O)[C@@H](C)O)[C@@H](C)O)[C@@H](C)O
B8: [des1, 4G, 15Q, 21Q, 23Y, 30S, 31K(C20 diacid-gGlu), 32T, 33Y]mimylin (peptide)
peptide: ASGLSTAALGRLSQELHELQTYPRTETGSK([γGlu-C20 diacid])TY-NH2
modifications: N-terminus assumed
SMILES: CC(C)C[C@H](NC(=O)CNC(=O)[C@H](CO)NC(=O)[C@H](C)N)C(=O)N[C@@H](CO)C(=O)N[C@H](C(=O)N[C@@H](C)C(=O)N[C@@H](C)C(=O)N[C@@H](CC(C)C)C(=O)NCC(=O)N[C@@H](CCCNC(=N)N)C(=O)N[C@@H](CC(C)C)C(=O)N[C@@H](CO)C(=O)N[C@@H](CCC(N)=O)C(=O)N[C@@H](CCC(=O)O)C(=O)N[C@@H](CC(C)C)C(=O)N[C@@H](Cc1c[nH]cn1)C(=O)N[C@@H](CCC(=O)O)C(=O)N[C@@H](CC(C)C)C(=O)N[C@@H](CCC(N)=O)C(=O)N[C@H](C(=O)N[C@@H](Cc1ccc(O)cc1)C(=O)N1CCC[C@H]1C(=O)N[C@@H](CCCNC(=N)N)C(=O)N[C@H](C(=O)N[C@@H](CCC(=O)O)C(=O)N[C@H](C(=O)NCC(=O)N[C@@H](CO)C(=O)N[C@@H](CCCCNC(=O)CC[C@H](NC(=O)CCCCCCCCCCCCCCCCCCC(=O)O)C(=O)O)C(=O)N[C@H](C(=O)N[C@@H](Cc1ccc(O)cc1)C(N)=O)[C@@H](C)O)[C@@H](C)O)[C@@H](C)O)[C@@H](C)O)[C@@H](C)O

How the values were obtained:
[1] = target: T1, human calcitonin receptor on BHK570/CRE-luc cells (human, UniProt P30988 25-474); experiment: cell-based or functional assay
T1 sequence (looked up): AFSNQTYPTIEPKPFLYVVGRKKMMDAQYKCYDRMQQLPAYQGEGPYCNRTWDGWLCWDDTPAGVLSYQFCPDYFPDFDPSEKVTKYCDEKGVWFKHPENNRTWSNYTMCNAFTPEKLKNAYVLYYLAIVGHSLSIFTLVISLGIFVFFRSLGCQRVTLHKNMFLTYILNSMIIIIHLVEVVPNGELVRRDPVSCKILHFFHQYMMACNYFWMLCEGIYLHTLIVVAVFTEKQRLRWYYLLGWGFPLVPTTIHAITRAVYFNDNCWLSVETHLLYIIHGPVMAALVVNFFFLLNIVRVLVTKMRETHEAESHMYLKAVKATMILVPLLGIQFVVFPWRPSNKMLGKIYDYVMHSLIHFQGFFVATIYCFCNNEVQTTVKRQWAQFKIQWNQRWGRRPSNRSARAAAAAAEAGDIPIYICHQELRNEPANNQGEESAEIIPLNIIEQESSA

[2] = target: T2, human amylin 3(a) receptor (human calcitonin receptor co-expressed with RAMP-3) on BHK570/CRE-luc cells (human, UniProt P30988 25-474; O60896 24-148); experiment: cell-based or functional assay
T2 sequence (looked up) 1: T1 sequence (looked up)
T2 sequence (looked up) 2: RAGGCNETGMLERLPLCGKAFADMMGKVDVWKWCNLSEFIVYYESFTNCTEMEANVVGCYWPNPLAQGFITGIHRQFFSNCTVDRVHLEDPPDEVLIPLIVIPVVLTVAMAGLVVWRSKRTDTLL

Binder	hCTR funct. EC50 (pM), tested with HSA [1]	hAmylin-R funct. EC50 (pM), tested with HSA [2]
B1	108 pM	158 pM
B2	68 pM	150 pM
B3	31 pM	157 pM
B4	22 pM	179 pM
B5	53 pM	70 pM
B6	49 pM	52 pM
B7	67 pM	291 pM
B8	113 pM	335 pM
